# Laboratory results reported in patent US20260217847A1 (NANJING REGENECORE BIOTECH, published 2026).
# Substitutions are numbered along the chain they refer to.
# B1: anti-humanized TfR1 protein single-domain antibody 2H7 (VHH clone, crude extract from pMECS) (VHH, not shown: small tags and cut ends)
# VHH: ESGGGLVQPGESLRLSCVASGSIWSIYTMGWYRQAPGKQRDFVASITGDSTRTLESVKDRFIISRDNTKNTLYLQMNSLKPEDTAVYYCQAITSLGEYWGQGTQVTVSS
# B2: anti-humanized TfR1 protein single-domain antibody 4D11 (VHH clone, crude extract from pMECS) (VHH, not shown: small tags and cut ends)
# VHH: B1 VHH with G48R, T68A, Q90H
# B3: anti-humanized TfR1 protein single-domain antibody 7D10 (VHH clone, crude extract from pMECS) (VHH, not shown: small tags and cut ends)
# VHH: ESGGGLVQPGGSLRLSCATSGGTFEMYAMAWFRQAPGKDREGVAGFSWRDSSTTYYSDSVKGRFTISRDNAKNTVYLQMNSLKPEDTAVYYCAARPYVSRWSESSGYDYWGQGTQVTVSS
# B4: anti-humanized TfR1 protein single-domain antibody 5D1 (VHH clone, crude extract from pMECS) (VHH, not shown: small tags and cut ends)
# VHH: ESGGGLVQPGESLRLSCVASGSIWSIYTMGWYRQAPGKQRDFVASITRDGGRRHAESVKDRFTISRDNAKNTLYLQMNSLKPEDTAVYSCLAITSLGEYWGQGTQVTVSS
# B5: anti-humanized TfR1 protein single-domain antibody 4C5 (VHH clone, crude extract from pMECS) (VHH, not shown: small tags and cut ends)
# VHH: B4 VHH with V18A, K38L, A44G, T47A, D49E, H54Y, L73M, P82R, S89Y, L91N
# B6: anti-humanized TfR1 protein single-domain antibody 7A3 (VHH clone, crude extract from pMECS) (VHH, not shown: small tags and cut ends)
# VHH: B4 VHH with G50S, H54Y, M77T, S89Y, L91H
# B7: anti-humanized TfR1 protein single-domain antibody 5D3 (VHH clone, crude extract from pMECS) (VHH, not shown: small tags and cut ends)
# VHH: ESGGGLVEPGGSLRLSCAASGNIFSINNMYWHRQAPGKQRELVGGITRGGITNYVDSVKGRFTISRDNAKNTVYLQMNSLKPEDTAVYFCNAHPWRLGIADYWGQGTQVTVSS
# B8: anti-humanized TfR1 protein single-domain antibody 7G10 (VHH clone, crude extract from pMECS) (VHH, not shown: small tags and cut ends)
# VHH: ESGGGLVQAGASLKLSCNGSGRTFISYAMGWFRQAPGKQREFVAAERWSGSGIYYADSLKGRFTISRDNAKNTVYLEMNNLKPEDTAVYYCAAREGGLLHVATSYDYWGQGTQVTVSS
# B9: anti-humanized TfR1 protein single-domain antibody 7G5 (VHH clone, crude extract from pMECS) (VHH, not shown: small tags and cut ends)
# VHH: ESGGGSVQPGGSLRLSCAVSGSIFSIDTMAWYRQAPGKQRELVAAITKGGSRNYADSVKGRFTISRDNAKNTVYLQMNSLKPEDTAVYYCLADRLFRDRSWGQGTQVTVSS
# B10: anti-humanized TfR1 protein single-domain antibody 8E10 (VHH clone, crude extract from pMECS) (VHH, not shown: small tags and cut ends)
# VHH: ESGGGLVQAGGSLRLSCAFSGPPFSTYGMGWFRQAPGKEREFVATISGSGFTTTYADSVKGRFTISRDNAKNTVYLQMNSLKPGDTAVYYCAAGVLDGTNWHEYDYWGQGTQVTVSS
# B11: anti-humanized TfR1 protein single-domain antibody 8B8 (VHH clone, crude extract from pMECS) (VHH, not shown: small tags and cut ends)
# VHH: B10 VHH with A9P, A18V, F19A, P22R, P23T, Y27S, G48W, G98S, N100S
# B12: anti-humanized TfR1 protein single-domain antibody 5A3 (VHH clone, crude extract from pMECS) (VHH, not shown: small tags and cut ends)
# VHH: ESGGGLVQAGGSLTLSCAVSRRAFNTKAMGWFRQAPGKEREFVATISWSGFSTNYADSVKGRFTISRDNAKNTVYLQMNSLKPGDTAVYYCAAGVLDGTNWHEYDYWGQGTQVTVSS
# Target: T1, human recombinant TfR1 protein (amino acids 89-760) (human, UniProt P02786 89-760)
# T1 construct: range 89-760; Expressed in 293F cells from pcDNA3.4; also called humanized TfR1 protein; humanized recombinant TfR1 protein
# Assay: ELISA of crude extracts on coated TfR1, anti-HA HRP; positive clone = OD at least 5-fold over control
# Method: Crude antibody extracts were obtained using osmotic lysis. 100 μL of the obtained crude antibody extract was transferred to the TfR1-coated ELISA plate and incubated at room temperature for 1 hour. Unbound antibodies were washed away with PBST buffer with Tween-20 (PBS purchased from Sangon Biotech, Cat. No. B548117-0500; Tween-20 purchased from Beyotime Biotechnology, Cat. No. ST825). 100 μL of 1:2000-diluted mouse anti-HA horseradish peroxidase (HRP)-conjugated antibody (Thermo Fisher) was added and incubated at room temperature for 1 hour. After washing with PBST buffer to remove unbound antibodies, HRP chromogenic solution was added, followed by a 15-minute reaction at 37° C. With the stop solution added, the absorbance was read at 450 nm using a microplate reader (purchased from TECAN).
# T1 sequence (P02786 89-760 limits assumed): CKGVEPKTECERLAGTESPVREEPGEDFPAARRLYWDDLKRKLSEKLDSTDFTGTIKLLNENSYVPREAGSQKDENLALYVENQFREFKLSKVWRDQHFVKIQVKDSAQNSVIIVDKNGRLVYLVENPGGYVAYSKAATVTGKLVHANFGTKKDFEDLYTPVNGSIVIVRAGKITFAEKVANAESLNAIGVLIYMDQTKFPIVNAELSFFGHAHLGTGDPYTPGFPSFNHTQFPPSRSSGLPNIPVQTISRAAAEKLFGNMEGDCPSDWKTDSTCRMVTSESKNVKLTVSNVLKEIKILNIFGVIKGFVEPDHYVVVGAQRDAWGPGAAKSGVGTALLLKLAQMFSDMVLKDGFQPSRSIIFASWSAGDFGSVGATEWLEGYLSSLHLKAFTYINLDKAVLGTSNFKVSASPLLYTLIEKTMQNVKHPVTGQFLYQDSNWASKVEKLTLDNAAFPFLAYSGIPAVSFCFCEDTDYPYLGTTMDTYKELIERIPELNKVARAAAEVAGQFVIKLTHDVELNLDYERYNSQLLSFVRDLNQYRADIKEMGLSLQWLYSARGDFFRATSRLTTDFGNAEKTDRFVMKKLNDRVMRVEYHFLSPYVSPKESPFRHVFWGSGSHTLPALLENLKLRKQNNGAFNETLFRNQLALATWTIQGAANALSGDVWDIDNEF
row,binding result,Binder
1,binds,B1
2,binds,B2
3,binds,B3
4,binds,B4
5,binds,B5
6,binds,B6
7,binds,B7
8,binds,B8
9,binds,B9
10,binds,B10
11,binds,B11
12,binds,B12
